This note sets out measurements from patent publication US20050196844A1.

The test deals with taxol stabilized microtubules prepared from phosphocellulose purified tubulin. The experiment in a line: co-sedimentation with taxol stabilized microtubules through a sucrose cushion, Western blot of pellet and supernatant. On the technique in general: A western blot detects proteins with antibodies after separation by electrophoresis.

With “E. coli synthesized tau (352 residue isoform) phosphorylated in vitro by fyn (from UniProt P10636 2-758)”, the binding efficiency is 50%. With “E. coli synthesized tau (352 residue isoform), non-phosphorylated (from UniProt P10636 2-758)”, the binding efficiency worked out at 50%.
